In assay [1] the target is T1, human FcγRIIb extracellular domain with C-terminal His-tag (human, UniProt P31994 43-217).
T1 construct: extracellular domain; also called hFcγR IIb
T1 sequence (looked up): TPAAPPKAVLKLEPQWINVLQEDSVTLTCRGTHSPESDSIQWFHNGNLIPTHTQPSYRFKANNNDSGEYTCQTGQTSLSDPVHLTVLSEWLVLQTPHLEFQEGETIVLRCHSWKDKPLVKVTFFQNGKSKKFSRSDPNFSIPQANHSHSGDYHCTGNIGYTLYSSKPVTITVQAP
The assay can be described thus: SPR; binding amount divided by that of 04H1389-G1m/04L1305-k0MT. (In SPR one partner is held on a chip, and binding of the other changes the refractive index at the surface.)

The target in assay [2] is T1, human FcγRIIb extracellular domain with …. Kind of assay: SPR; FcγRIIb bound amount per unit captured Ab.
Assay [3] addresses T2, human FcγRIIIa V allotype extracellular domain with C-terminal His-tag (human, UniProt P08637 17-208).
T2 construct: extracellular domain; also called hFcγR IIIa V
The assay can be described thus: SPR Biacore T200, captured Ab, pH 7.4, steady state model.

In assay [4] the target is T3, human FcγRIIa H allotype extracellular domain with C-terminal His-tag (human, UniProt P12318 34-217).
T3 construct: extracellular domain; also called hFcγR IIa H
T3 sequence (looked up): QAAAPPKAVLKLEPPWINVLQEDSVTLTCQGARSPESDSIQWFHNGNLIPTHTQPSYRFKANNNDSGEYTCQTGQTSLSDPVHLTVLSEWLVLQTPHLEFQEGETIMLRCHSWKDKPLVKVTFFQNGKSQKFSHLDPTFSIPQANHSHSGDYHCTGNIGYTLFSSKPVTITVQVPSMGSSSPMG
The assay can be described thus: SPR; KD of 04H1389-G1m/04L1305-k0MT divided by KD of variant.

The target in assay [5] is T4, human FcγRIIIa F allotype extracellular domain with C-terminal His-tag (human, UniProt P08637 17-208).
T4 construct: extracellular domain; also called hFcγR IIIa F
Described as above.

The target in assay [6] is T5, human FcγRIIa R allotype extracellular domain with C-terminal His-tag (human, UniProt P12318 34-217).
T5 construct: extracellular domain; also called hFcγR IIa R
T5 sequence (looked up): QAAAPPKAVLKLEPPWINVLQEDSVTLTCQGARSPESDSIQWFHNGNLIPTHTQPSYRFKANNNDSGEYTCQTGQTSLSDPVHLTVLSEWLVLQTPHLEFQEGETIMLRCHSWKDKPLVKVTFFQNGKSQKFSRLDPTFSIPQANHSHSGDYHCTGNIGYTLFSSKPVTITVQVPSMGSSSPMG
The description is as above.

Assay [7] deals with T6, human FcRn (human, UniProt P55899 24-290; P61769 21-119).
T6 construct: Prepared by the method of WO 2010/107110; also called hFcRn
The description is as above.

Assay [8] concerns the target T2, human FcγRIIIa V allotype extracellular …. Described as above.
The target in assay [9] is T7, human FcγRIa extracellular domain with C-terminal His-tag (human, UniProt P12314 16-292).
T7 construct: extracellular domain; also called hFcγR Ia; hFcγRIa
The assay is described as above.

In assay [10] the target is T3, human FcγRIIa H allotype extracellular …. Kind of assay: SPR Biacore T200, captured Ab, pH 7.4.
The target of assay [11] is T4, human FcγRIIIa F allotype extracellular …. Kind of assay: SPR Biacore T200, captured Ab, pH 7.4.
The target in assay [12] is T5, human FcγRIIa R allotype extracellular …. The assay can be described thus: SPR Biacore T200, captured Ab, pH 7.4.
In assay [13] the target is T7, human FcγRIa extracellular domain with …. Kind of assay: SPR Biacore T200, captured Ab, pH 7.4.
In assay [14] the target is T6, human FcRn. The assay can be described thus: SPR Biacore T200, captured Ab, pH 6.0, steady state.

T4 sequence (P08637 17-208): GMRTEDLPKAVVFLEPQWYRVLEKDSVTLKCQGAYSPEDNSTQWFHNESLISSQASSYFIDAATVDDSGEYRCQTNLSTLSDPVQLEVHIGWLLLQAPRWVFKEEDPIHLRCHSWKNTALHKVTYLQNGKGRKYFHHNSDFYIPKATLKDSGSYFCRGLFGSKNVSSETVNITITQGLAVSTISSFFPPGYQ
T7 sequence (P12314 16-292): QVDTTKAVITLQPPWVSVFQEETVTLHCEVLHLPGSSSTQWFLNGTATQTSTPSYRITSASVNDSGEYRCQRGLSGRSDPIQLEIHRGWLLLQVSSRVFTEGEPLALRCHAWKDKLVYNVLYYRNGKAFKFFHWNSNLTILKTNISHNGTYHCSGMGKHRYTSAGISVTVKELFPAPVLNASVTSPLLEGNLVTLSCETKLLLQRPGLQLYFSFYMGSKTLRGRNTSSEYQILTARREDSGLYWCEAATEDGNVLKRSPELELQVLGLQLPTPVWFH
T6 sequence (P55899 24-290 limits assumed, chain 1 of 2): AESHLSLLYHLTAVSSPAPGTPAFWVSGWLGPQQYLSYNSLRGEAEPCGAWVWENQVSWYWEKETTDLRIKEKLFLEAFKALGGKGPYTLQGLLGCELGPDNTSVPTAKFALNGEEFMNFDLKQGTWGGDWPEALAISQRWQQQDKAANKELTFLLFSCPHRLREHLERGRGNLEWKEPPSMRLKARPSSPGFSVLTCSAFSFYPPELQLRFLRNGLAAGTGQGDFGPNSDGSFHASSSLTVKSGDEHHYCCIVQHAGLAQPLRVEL
T6 sequence (P61769 21-119 limits assumed, chain 2 of 2): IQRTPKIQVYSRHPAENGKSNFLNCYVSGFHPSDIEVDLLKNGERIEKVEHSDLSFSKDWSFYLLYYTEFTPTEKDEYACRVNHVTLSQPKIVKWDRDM
T2 sequence (P08637 17-208 F176V): as the sequence (P08637 17-208) above, with F160V counted along it

B1: 04H1389-G1m/04L1305-k0MT (antibody, human IgG1, kappa)
heavy: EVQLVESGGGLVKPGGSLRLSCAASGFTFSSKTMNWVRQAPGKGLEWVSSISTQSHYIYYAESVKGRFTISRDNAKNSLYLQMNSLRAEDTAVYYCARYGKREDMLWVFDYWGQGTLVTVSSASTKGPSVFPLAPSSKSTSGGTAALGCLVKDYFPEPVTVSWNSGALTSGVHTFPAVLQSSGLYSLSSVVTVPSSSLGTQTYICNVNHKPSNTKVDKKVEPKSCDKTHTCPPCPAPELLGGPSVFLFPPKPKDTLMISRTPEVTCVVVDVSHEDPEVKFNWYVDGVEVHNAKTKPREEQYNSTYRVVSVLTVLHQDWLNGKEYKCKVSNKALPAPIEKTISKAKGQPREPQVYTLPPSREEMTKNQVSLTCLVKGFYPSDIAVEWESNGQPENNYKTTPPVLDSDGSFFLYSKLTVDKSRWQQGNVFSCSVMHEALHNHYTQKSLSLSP
light: DIVMTQSPLSLPVTPGEPASISCDGPSTGVGDYNYVHWYQQKPGQAPRLLIYFTSKKPSGVPDRFSGSGSGTDFTLKISRVEAEDVGVYYCQTYAAPLGPMFGQGTKLEIKRTVAAPSVFIFPPSDEQLKSGTASVVCLLNNFYPREAKVQWKVDNALQSGNSQESVTEQDSKDSTYSLSSTLTLSKADYEKHKVYACEVTHQGLSSPVTKSFNRGEC
In [1], B1 registered a Relative binding amount of 1. The same molecule gave a Binding amount in assay [2] of 0.011. Moreover, the Kd – broadly, a measure of binding affinity in units of concentration – in assay [3] came out at 880 nM; in assay [10] it was 1100 nM; in assay [11] it was 690 nM; in [12], 1600 nM; in assay [13], 0.069 nM; with human FcRn [14], 1000 nM. Besides, the “Relative value to KD between G1m and hFcγRs” value in [4], in assay [5], in assay [6], in assay [8] and in assay [9] was 1 throughout. Further, the “Relative value to KD between G1m and hFcRn” value with human FcRn [7] came to 1.
